Measurements as given in patent publication US20200239586A1 (LA TROBE UNIVERSITY, published 2020).
Where two headings read alike, the source gives them in different places. Ends that are not written are not given here. * marks the point of attachment. Biotin = O=C1N[C@H]2[C@H](CS[C@H]2CCCCC(=O)*)N1

T1: human Fn14 (human, UniProt Q9NP84 28-129)
T1 sequence: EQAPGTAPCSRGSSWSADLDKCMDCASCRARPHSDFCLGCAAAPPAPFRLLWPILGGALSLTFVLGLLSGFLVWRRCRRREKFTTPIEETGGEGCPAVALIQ

T2: synthetic peptide hFn14 sub-domain 1p (human, biotin on the added C-terminal lysine)
T2 construct: synthesised by GLBiochem
T2 peptide: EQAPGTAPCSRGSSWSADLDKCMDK

T3: synthetic peptide hFn14 sub-domain 2 (human, biotin on the added C-terminal lysine; disulfide bonds as in the solution structure of He et al. 2009)
T3 construct: also called sub-domain 2 peptide
T3 peptide: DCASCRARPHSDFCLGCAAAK

T4: synthetic peptide hFn14 sub-domain 3 (human, cysteine pairing not given here)
T4 construct: also called sub-domain 3 peptide
T4 peptide: ASCRARPHSDFCLGK(Biotin)

T5: Histidine tagged mouse Fn14 extracellular domain (mouse, UniProt Q9CR75 28-80)
T5 construct: extracellular domain; also called mFn14; not shown: (His)6 tag from pET-15b
T5 sequence (looked up): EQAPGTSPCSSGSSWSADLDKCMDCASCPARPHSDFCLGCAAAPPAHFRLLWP

T6: synthetic peptide Sub-domain 2 Cys 3&6 ΔS (human, not fully specified; biotin on the added C-terminal lysine)
T6 construct: also called sub-domain 2 cys3&6ΔS mutant
T6 peptide: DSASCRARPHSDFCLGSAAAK


What was measured:
human Fn14 [1] = target: T1, human Fn14; test: cell-based or functional assay
[2] = target: T2, synthetic peptide hFn14 sub-domain 1p; test: ELISA on biotinylated synthetic peptide
Protocol: (§1) Peptides representing sub-domains 1p, 2 and 3 of hFn14 (FIG. 20, Panels B and C and FIG. 14, Panel A) and for disulfide pair mutants (Cys3&6ΔS and Cys4&5ΔS; FIG. 20 Panels D and E) were synthesized by GLBiochem Ltd. (Shanghai, China) and the cysteine residues for disulfide bonds were chosen as described in the solution structure by He et al., (2009). An additional lysine residue was added to the C-terminus in order to attach a biotin moiety and to enable the peptides to bind to neutravidin coated plates (Pre-blocked; Pierce). For these experiments, a control peptide with a biotin at the C-terminus was used as a negative control and isotype control antibodies were also used.
(§2) The ELISA was performed essentially according to the manufacturer's recommended protocol (Pierce). Briefly, peptide was coated onto wells (in duplicate) at 1-10 μg/ml for 2 hours at room temperature. Wells were washed in PBS/0.05% Tween 20/0.1% BSA 3 times and dilutions of each antibody were added in wash buffer for 1 hour with gentle agitation. After another three washes anti-mouse HRP-conjugated to horse radish peroxidase (HRP; Chemicon) was added at 1/1000 dilution for 1 hour shaking. Finally, after 4 further washes the plate was developed using TMB (3,3′,5,5′-tetramethylbenzidine) substrate (Pierce), and the reaction was stopped using 2M H2SO4 solution. Optical density at 450 nm was quantified using a Spectromax absorbance spectrophotometer.

[3] = target: T3, synthetic peptide hFn14 sub-domain 2; test: ELISA on biotinylated sub-domain 2 peptide, mAb at 5 ng/ml
From the text: FIG. 21B is a graphical representation showing reactivity of anti-Fn14 mAbs CRCBT-06-001, CRCBT-06-002, CRCBT-06-003, CRCBT-06-004, CRCBT-06-005, CRCBT-06-006, CRCBT-06-007 and ITEM-1 with a synthetic peptide representing sub-domain 2 of Fn14. Plates were coated with sub-domain 2 peptide and various dilutions of antibody were allowed to bind, bound antibody was detected with anti-mouse HRP and TMB substrate. The average of duplicate readings are plotted, error bars represent standard deviations. The ELISA was repeated to ensure consistent results. The vertical line at 5 ng/ml within the linear part of the curves is the point at which a comparison of the reactivity of each mAb was analyzed.
as §1
as §2, with “Finally, after 4 further washes the plate was developed using TMB (3,3′,5,5′-tetramethylbenzidine) substrate (Pierce), and the reaction was stopped using 2M H2SO4 solution.” left out

[4] = target: T7, phage-displayed hFn14 extracellular domain (human, UniProt Q9NP84 28-77); test: phage ELISA, antibody on plate, 10-fold phage dilutions
T7 construct: also called FN14 Ectodomain; FN14 Ecto
Protocol: Each normalized preparation was 10-fold serially diluted and added in solution to the MAbs attached to the solid phase. ELISAs shown here were performed simultaneously with the same preparations of phage. Binding was detected using HRP-conjugated anti-M13 phage polyclonal IgG and TMB substrate. Optical density at 450 nm was quantified using a Spectramax spectrophotometer. Error bars for each dilution represent the standard deviation of duplicate assays. […] ELISAs were performed under similar conditions to those described for Panel A. Methods according to Epitope mapping using phage expressed Fn14—Method 1.
The wells of Maxisorp immunoplates (Nunc) were coated overnight at 4° C. with the target monoclonal antibodies or recombinant Tweak-Fc at a concentration of 2 μg/mL in PBS. MAb 5G8 was used as a negative control for ELISA plates coated with tested antibodies. Recombinant Fc alone was used as a negative control for ELISA plates coated with recombinant Tweak-Fc. […] 10-fold serial dilutions of phage were made using 5% skim milk/PBS solution in 2 ml-well microtiter plates and phage dilutions were added to the coated, blocked ELISA plates for 1 hr, with vigorous shaking at room temperature. Phage were subsequently removed from the wells and the ELISA plates were washed 4× with PBS/0.05% Tween 20. […]

human Fn14 [5] = target: T1, human Fn14; test: cell-based or functional assay; remark: listed apart in the source
[6] = target: T4, synthetic peptide hFn14 sub-domain 3; test: ELISA on biotinylated sub-domain 3 peptide, mAb at 0.2 ug/ml
Protocol: An additional lysine residue was added to the C-terminus in order to attach a biotin moiety and to enable the peptides to bind to neutravidin coated plates (Pre-blocked; Pierce). For these experiments, a control peptide with a biotin at the C-terminus was used as a negative control and isotype control antibodies were also used.
as §2
The reactivity of CRCBT-06-001 CRCBT-06-002, CRCBT-06-003, CRCBT-06-004, CRCBT-06-005, CRCBT-06-006 and CRCBT-06-007 with sub-domain 3 was lower than for sub-domain 2, indicating this region may be a partial epitope for these antibodies. However, the differences in binding to this region could reveal subtle variations in the contact regions of the antibodies with hFn14. The order of binding from strongest to weakest was CRCBT-06-005, CRCBT-06-002, CRCBT-06-001, CRCBT-06-006, CRCBT-06-007 and ITEM-1. The relative binding of each antibody to sub-domain 3 at a single point in the linear region of the curves was measured at 0.2 µg/ml (FIG. 21C). […] This could indicate the epitope of ITEM-1 may differ slightly to the CRCBT antibodies based on weaker interaction with surface exposed residues in sub-domain 3.

[7] = target: T8, His tagged hFn14 extracellular region mutant R56A (human, UniProt Q9NP84 28-77); test: ELISA with purified His-tagged hFn14 R56A; x axis 'Log (c)' without unit, µg/ml by the legend
T8 construct: not shown: (His)6 tag

[8] = target: T5, Histidine tagged mouse Fn14 …; test: ELISA with purified His-tagged mouse Fn14; x axis 'Log (c)' without unit, µg/ml by the legend
[9] = target: T6, synthetic peptide Sub-domain 2 Cys 3&6 …; test: peptide ELISA: biotinylated synthetic peptide on neutravidin plate, antibody titrated (legend: 0.1-0.0001 µg/ml; axis 'Log (c)'), anti-mouse HRP, TMB, OD 450 nm
[10] = target: T9, His tagged hFn14 extracellular region mutant R56P (human, UniProt Q9NP84 28-77); test: ELISA with purified His-tagged hFn14 R56P; x axis 'Log (c)' without unit, µg/ml by the legend
T9 construct: also called R56P mutant; not shown: (His)6 tag

[11] = target: T10, His tagged hFn14 extracellular region mutant R56K (human, UniProt Q9NP84 28-77); test: ELISA with purified His-tagged hFn14 R56K; x axis 'Log (c)' without unit, µg/ml by the legend
T10 construct: not shown: (His)6 tag

[12] = target: T7, phage-displayed hFn14 extracellular …; test: phage ELISA, antibody on plate, 10-fold phage dilutions; remark: listed apart in the source
Protocol: Each normalized preparation was 10-fold serially diluted and added in solution to the MAbs attached to the solid phase. All ELISAs shown were performed simultaneously with the same preparations of phage. Binding was detected using HRP-conjugated anti-M13 phage polyclonal IgG and TMB substrate. Optical density at 450 nm was quantified using a Spectramax spectrophotometer. Error bars for each dilution represent the standard deviation of duplicate assays. In this figure, reference to “FN14 Ecto” is a reference to the extracellular domain of hFn14. Methods according to Epitope mapping using phage expressed Fn14—Method 1.
The wells of Maxisorp immunoplates (Nunc) were coated overnight at 4° C. with the target monoclonal antibodies or recombinant Tweak-Fc at a concentration of 2 μg/mL in PBS. MAb 5G8 was used as a negative control for ELISA plates coated with tested antibodies. Recombinant Fc alone was used as a negative control for ELISA plates coated with recombinant Tweak-Fc. […] 10-fold serial dilutions of phage were made using 5% skim milk/PBS solution in 2 ml-well microtiter plates and phage dilutions were added to the coated, blocked ELISA plates for 1 hr, with vigorous shaking at room temperature. […] Optical density at 450 nm was quantified using a Spectramax absorbance spectrophotometer.

[13] = target: T11, Histidine tagged hFn14 extracellular domain, bacterially expressed (human, UniProt Q9NP84 28-77); test: ELISA on coated His-tagged protein
T11 construct: also called recombinant Fn14; recombinant human Fn14; not shown: (His)6 tag from pET-15b

NFκB-GFP reporter in HEK293T cells (human Fn14 [1]) [µg/mL] | binding result [2] | % decrease in binding compared to CRCBT-06-001 and CRCBT-06-002 [3] [%] | binding result [4] | % Agonist, IL-8 secretion by A375 cells (human Fn14 [5]) [%] | % Antagonist, IL-8 secretion by A375 cells (human Fn14 [5]) [%] | % decrease in binding compared with CRCBT-06-005 [6] [%] | binding result [7] | binding result [8] | binding result [9] | binding result [10] | binding result [11] | binding result [12] | binding result [13] | Binder
1 | no binding | 48 | binds | 16 | 89 | 73 | – | – | – | – | – | – | – | CRCBT-06-007 (antibody, IgG2b, V domains shown) VH: QVKLEESGGVLVQPGGSMKLSCIASGFSFSKYWMNWVRQSPEKGLEWVAEIRVKSNNYATHYAESVKGRFIISRDDSKSSVYLQMNNLRAEDTGIYYCTKSYADYFDYWGQGTTLTVSS VL: DIVMTQSTASLAVSLGQRATISCRASQSVSTSSYSYMHWYQQKPGQPPKVLIKYASNLESGVPARFSGSGSGTDFTLNIHPVEEEDAATYYCQHSWEIPYTFGGGTKLEIKR
1 | no binding | 40 | – | 26 | 92 | – | binds | binds | binds | binds | binds | binds | binds | CRCBT-06-005 (antibody, IgG2b, V domains shown) VH: QVQLQESGGGLVQPGGSMKLSCVASGFTFSYYWMNWVRQSPEQGLEWIAEIRLQSNDYPTHYAESVKGRFTISRDDSKNSVYLQMNNLRPEDTGIYYCACRYADYFDHWGQGTTLTVSS VL: DIVLTQTTASLTVSLGQRATISCRASQSVSTSTYSYMHWYQQTPGQPPTVLIKYASSLESGVPTRFSGSGSGTDFTLNIHPVEEEDTATYYCQHSWEIPYTFGGGTKLEIKR
1 | no binding | 76 | – | 106 | – | 73 | – | – | – | – | – | binds | – | CRCBT-06-006 (antibody, IgG2a, V domains shown) VH: QVQLQESGGGLVQPGGSMKLSCVASGFTFSYYWMNWVRQSPEQGLEWIAEIRLQSNDYPTHYAESVKGRFTISRDDSKNSVYLQMNNLRPEDTGIYYCACRYADYFDHWGQGTTLTVSS VL: DIVITQSPASLTVSLGQRATISCRASQSVSTSTYSYMHWYQQTPGQPPTVLIKYASSLESGVPTRFSGSGSGTDFTLNIHPVEEEDTATYYCQHSWEIPYTFGGGTKLEIKR
